Measurements published in the supplement of paper PMC10126150.
± gives the standard deviation of the averaged measurements.

Test system: ATP
Assay: switch fluorescence ratio, 500 uM ATP over buffer (Cy3 cluster intensity, sum of 5 cycles each) (fold (ratio)); higher = stronger signal-on switching upon ATP binding; sequences stand for … in TCGTCGGCAGCGTCAGATGTGTATAAGAGACAGTTTTTTTTTTTTTTTTTTTTTTTTT…TC
Settings: aptamer strand: ATP DNA aptamer (quencher-CACCTGGGGGAGTATTGCGGAGGAAGG + anchor), 100 nM annealed; ATP concentration: 500 uM
In short: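 Cy3-labelled switching-strand clusters on a modified Illumina MiSeq flow-cell were annealed to 100 nM quencher-labelled ATP aptamer and imaged first in selection buffer, then after 15 min with 500 uM ATP at 22 °C. NaOH stripping and re-annealing separated each of five buffer/ATP cycles, and clusters outside 100-1000 RFU were excluded. The fluorescence ratio sums target-cycle Cy3 intensity over buffer-cycle Cy3 intensity per cluster and averages it per switch-domain sequence.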
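Further: ATP exposure 15 min at 22 °C before imaging.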

TGTTGGTTTT
switch fluorescence ratio: 1.02 ± 0.027

TGTTGTAGCG
switch fluorescence ratio: 0.975 ± 0.037

TGTTGTAGGA
switch fluorescence ratio: 0.997 ± 0.015

TGTTGTGAGG
switch fluorescence ratio: 0.997 ± 0.025

TGTTGTTAAT
switch fluorescence ratio: 0.999 ± 0.019

TGTTGTTATT
switch fluorescence ratio: 1.018 ± 0.0091

TGTTGTTTTT
switch fluorescence ratio: 0.991 ± 0.037

TGTTTAAATA
switch fluorescence ratio: 1.033 ± 0.0035

TGTTTAACAG
switch fluorescence ratio: 1.03 ± 0.05

TGTTTATTGA
switch fluorescence ratio: 0.989 ± 0.013

TGTTTCCGGT
switch fluorescence ratio: 1.44 ± 0.59

TGTTTCGTTT
switch fluorescence ratio: 1 ± 0.055

TGTTTCTGG
switch fluorescence ratio: 0.996 ± 0.036

TGTTTCTTGA
switch fluorescence ratio: 1.01 ± 0.058

TGTTTGAATG
switch fluorescence ratio: 0.9585 ± 0.0029

TGTTTGAGG
switch fluorescence ratio: 0.9559 ± 0.009

TGTTTGATTT
switch fluorescence ratio: 0.975 ± 0.019

TGTTTGGGGC
switch fluorescence ratio: 0.989 ± 0.019

TGTTTGTATT
switch fluorescence ratio: 0.955 ± 0.03

TGTTTGTGAA
switch fluorescence ratio: 0.9815 ± 0.0032

TGTTTGTGGT
switch fluorescence ratio: 0.987 ± 0.023

TGTTTTAAGC
switch fluorescence ratio: 1.03 ± 0.022

TGTTTTAGAC
switch fluorescence ratio: 0.997 ± 0.035

TGTTTTCCCC
switch fluorescence ratio: 1.02 ± 0.028

TGTTTTCGTG
switch fluorescence ratio: 0.985 ± 0.015

TGTTTTGAAT
switch fluorescence ratio: 1.006 ± 0.0096

TGTTTTGTAG
switch fluorescence ratio: 1 ± 0.015

TGTTTTTAAC
switch fluorescence ratio: 0.983 ± 0.015

TGTTTTTACC
switch fluorescence ratio: 1.03 ± 0.059

TGTTTTTATC
switch fluorescence ratio: 0.992 ± 0.013

TGTTTTTCTT
switch fluorescence ratio: 1.01 ± 0.033

TGTTTTTTGG
switch fluorescence ratio: 0.991 ± 0.033

TGTTTTTTGT
switch fluorescence ratio: 0.992 ± 0.034

TTAAAAAGAG
switch fluorescence ratio: 0.999 ± 0.042

TTAAAAAGGG
switch fluorescence ratio: 0.995 ± 0.029

TTAAAAGAGC
switch fluorescence ratio: 1.02 ± 0.035

TTAAAAGTTA
switch fluorescence ratio: 1.03 ± 0.044

TTAAAATATT
switch fluorescence ratio: 0.993 ± 0.023

TTAAAATGAG
switch fluorescence ratio: 0.9972 ± 0.006

TTAAACGC
switch fluorescence ratio: 1.03 ± 0.012

TTAAACGGAG
switch fluorescence ratio: 1.034 ± 0.0052

TTAAACGTGT
switch fluorescence ratio: 1.04 ± 0.03

TTAAACGTTA
switch fluorescence ratio: 1.32 ± 0.44

TTAAACTTAG
switch fluorescence ratio: 0.992 ± 0.03

TTAAAGAAAT
switch fluorescence ratio: 1.05 ± 0.091

TTAAAGACGT
switch fluorescence ratio: 1.51 ± 0.7

TTAAAGAGCG
switch fluorescence ratio: 0.989 ± 0.04

TTAAAGAGGC
switch fluorescence ratio: 0.993 ± 0.032

TTAAAGATGG
switch fluorescence ratio: 1 ± 0.045

TTAAAGGATT
switch fluorescence ratio: 1.01 ± 0.052

TTAAAGGGAT
switch fluorescence ratio: 1.1 ± 0.16

TTAAAGGGC
switch fluorescence ratio: 0.973 ± 0.08

TTAAAGGGGT
switch fluorescence ratio: 1.05 ± 0.1

TTAAAGGTTA
switch fluorescence ratio: 0.989 ± 0.013

TTAAAGTAGT
switch fluorescence ratio: 1.19 ± 0.32

TTAAAGTCGA
switch fluorescence ratio: 1.0194 ± 0.00069

TTAAAGTTGC
switch fluorescence ratio: 1.02 ± 0.038

TTAAAGTTGT
switch fluorescence ratio: 1.03 ± 0.07

TTAAATAGGT
switch fluorescence ratio: 0.9956 ± 0.0088

TTAAATATTT
switch fluorescence ratio: 0.992 ± 0.022

TTAAATCATA
switch fluorescence ratio: 0.99742 ± 0.00093

TTAAATGCCT
switch fluorescence ratio: 1.07 ± 0.028

TTAAATGGGT
switch fluorescence ratio: 1 ± 0.033

TTAAATTACC
switch fluorescence ratio: 1.05 ± 0.032

TTAAATTGGG
switch fluorescence ratio: 1.01 ± 0.018

TTAACAGGAA
switch fluorescence ratio: 1.024 ± 0.0095

TTAACATACG
switch fluorescence ratio: 1.38 ± 0.042

TTAACCGGGG
switch fluorescence ratio: 1.13 ± 0.16

TTAACCGGTA
switch fluorescence ratio: 1.02 ± 0.0039

TTAACGAACG
switch fluorescence ratio: 1.15 ± 0.083

TTAACGCGTT
switch fluorescence ratio: 1.0063 ± 0.00089

TTAACGGGTT
switch fluorescence ratio: 1.02 ± 0.037

TTAACGGTCT
switch fluorescence ratio: 1.04 ± 0.027

TTAACTAGAT
switch fluorescence ratio: 1.02 ± 0.016

TTAACTAGGC
switch fluorescence ratio: 0.989 ± 0.054

TTAACTAGGG
switch fluorescence ratio: 0.974 ± 0.037

TTAACTGGGG
switch fluorescence ratio: 1.11 ± 0.13

TTAACTTCGG
switch fluorescence ratio: 0.9712 ± 0.0059

TTAACTTTCT
switch fluorescence ratio: 1.058 ± 0.0094

TTAAGAACCT
switch fluorescence ratio: 1.31 ± 0.13

TTAAGACCAC
switch fluorescence ratio: 1.01 ± 0.012

TTAAGACGGG
switch fluorescence ratio: 1.002 ± 0.0017

TTAAGACGGT
switch fluorescence ratio: 1.03 ± 0.031

TTAAGAGAGG
switch fluorescence ratio: 1.01 ± 0.013

TTAAGCAATT
switch fluorescence ratio: 1.36 ± 0.047

TTAAGCACAT
switch fluorescence ratio: 1.202 ± 0.011

TTAAGCCCTT
switch fluorescence ratio: 1.04 ± 0.036

TTAAGCGAGC
switch fluorescence ratio: 0.9657 ± 0.0024

TTAAGCTGTT
switch fluorescence ratio: 1.01 ± 0.023

TTAAGCTTAT
switch fluorescence ratio: 1.012 ± 0.006

TTAAGGAGCA
switch fluorescence ratio: 1.05 ± 0.044

TTAAGGAGGA
switch fluorescence ratio: 0.981 ± 0.03

TTAAGGATGT
switch fluorescence ratio: 1 ± 0.014

TTAAGGCTAA
switch fluorescence ratio: 1.03 ± 0.038

TTAAGGGTGG
switch fluorescence ratio: 0.991 ± 0.021

TTAAGGGTTT
switch fluorescence ratio: 1.01 ± 0.047

TTAAGGTCGG
switch fluorescence ratio: 1 ± 0.012

TTAAGGTGAG
switch fluorescence ratio: 1.02 ± 0.021

TTAAGGTTTA
switch fluorescence ratio: 1.02 ± 0.038

TTAAGTACG
switch fluorescence ratio: 1.22 ± 0.09

TTAAGTAGGC
switch fluorescence ratio: 1.16 ± 0.19

TTAAGTATTT
switch fluorescence ratio: 0.997 ± 0.055

TTAAGTCCGG
switch fluorescence ratio: 0.9629 ± 0.0071

TTAAGTGCTA
switch fluorescence ratio: 0.9897 ± 0.0067

TTAAGTGTAG
switch fluorescence ratio: 1 ± 0.021

TTAATAAACT
switch fluorescence ratio: 1.03 ± 0.051

TTAATAAGAC
switch fluorescence ratio: 1.04 ± 0.054

TTAATAATGG
switch fluorescence ratio: 0.979 ± 0.026

TTAATAGTCA
switch fluorescence ratio: 1 ± 0.014

TTAATAGTTT
switch fluorescence ratio: 0.988 ± 0.04

TTAATATTCT
switch fluorescence ratio: 0.969 ± 0.065

TTAATCTACT
switch fluorescence ratio: 1.01 ± 0.015

TTAATCTCGG
switch fluorescence ratio: 0.9954 ± 0.0016

TTAATCTTAA
switch fluorescence ratio: 0.972 ± 0.018

TTAATCTTTT
switch fluorescence ratio: 1.06 ± 0.14

TTAATGCCGT
switch fluorescence ratio: 1.05 ± 0.076

TTAATGCTAA
switch fluorescence ratio: 0.99 ± 0.036

TTAATGGCGG
switch fluorescence ratio: 0.995 ± 0.02

TTAATGGGTG
switch fluorescence ratio: 1.05 ± 0.015

TTAATGTATT
switch fluorescence ratio: 0.995 ± 0.016

TTAATTATAT
switch fluorescence ratio: 1.02 ± 0.018

TTAATTGGTT
switch fluorescence ratio: 0.997 ± 0.031

TTAATTTGAA
switch fluorescence ratio: 0.997 ± 0.013

TTAATTTGCA
switch fluorescence ratio: 1.01 ± 0.04

TTAATTTGGA
switch fluorescence ratio: 1.014 ± 0.0088

TTAATTTTA
switch fluorescence ratio: 1.014 ± 0.0011

TTAATTTTGT
switch fluorescence ratio: 1 ± 0.012

TTACAAGCGA
switch fluorescence ratio: 1.03 ± 0.019

TTACAATTTT
switch fluorescence ratio: 0.985 ± 0.019

TTACACAAAA
switch fluorescence ratio: 1 ± 0.033

TTACACCTTT
switch fluorescence ratio: 1.02 ± 0.0085

TTACAGCATT
switch fluorescence ratio: 1.07 ± 0.067

TTACAGTTAA
switch fluorescence ratio: 1.01 ± 0.021

TTACAGTTTT
switch fluorescence ratio: 0.9442 ± 0.0036

TTACATGGTA
switch fluorescence ratio: 0.977 ± 0.0024

TTACATTTGG
switch fluorescence ratio: 0.9846 ± 0.0036

TTACCAGTCT
switch fluorescence ratio: 1 ± 0.046

TTACCCCAGT
switch fluorescence ratio: 1.21 ± 0.036

TTACCGGACT
switch fluorescence ratio: 1.11 ± 0.042

TTACCGGCGC
switch fluorescence ratio: 1.14 ± 0.18

TTACCGGGAT
switch fluorescence ratio: 1.02 ± 0.031

TTACCGTGGG
switch fluorescence ratio: 1.05 ± 0.029

TTACCTTAGT
switch fluorescence ratio: 1.06 ± 0.034

TTACGATGGG
switch fluorescence ratio: 0.97086 ± 0.00075

TTACGGATAA
switch fluorescence ratio: 1.49 ± 0.67

TTACGGATGG
switch fluorescence ratio: 1.03 ± 0.065

TTACGGGCTC
switch fluorescence ratio: 0.985 ± 0.058

TTACGGGGCA
switch fluorescence ratio: 1.04 ± 0.019

TTACGGTGAA
switch fluorescence ratio: 1.07 ± 0.072

TTACGGTTGG
switch fluorescence ratio: 0.995 ± 0.025

TTACGTAAGG
switch fluorescence ratio: 1.23 ± 0.051

TTACGTGTTA
switch fluorescence ratio: 0.995 ± 0.041

TTACGTTACG
switch fluorescence ratio: 1.34 ± 0.047

TTACTAGTAT
switch fluorescence ratio: 1 ± 0.025

TTACTATCTG
switch fluorescence ratio: 1.01 ± 0.019

TTACTATGAA
switch fluorescence ratio: 1.039 ± 0.0071

TTACTCAGCC
switch fluorescence ratio: 1.12 ± 0.055

TTACTCGGTC
switch fluorescence ratio: 0.99 ± 0.052

TTACTGATGG
switch fluorescence ratio: 0.99 ± 0.033

TTACTTAAAA
switch fluorescence ratio: 0.988 ± 0.04

TTACTTGAGA
switch fluorescence ratio: 0.99 ± 0.032

TTACTTGTAC
switch fluorescence ratio: 1.15 ± 0.025

TTACTTTGCT
switch fluorescence ratio: 1.003 ± 0.0061

TTACTTTTCG
switch fluorescence ratio: 1.03 ± 0.057

TTAGAAAACT
switch fluorescence ratio: 1 ± 0.012

TTAGAAAATA
switch fluorescence ratio: 1.12 ± 0.15

TTAGAAAGTC
switch fluorescence ratio: 1.64 ± 0.93

TTAGAACTCC
switch fluorescence ratio: 1.05 ± 0.036

TTAGAAGCTT
switch fluorescence ratio: 1.03 ± 0.03

TTAGAAGTAT
switch fluorescence ratio: 1.03 ± 0.046

TTAGAAGTGG
switch fluorescence ratio: 0.988 ± 0.025

TTAGACGGCC
switch fluorescence ratio: 1.03 ± 0.014

TTAGACGGGA
switch fluorescence ratio: 1.026 ± 0.0043

TTAGACTTAT
switch fluorescence ratio: 1.01 ± 0.021

TTAGAGACAG
switch fluorescence ratio: 0.985 ± 0.049

TTAGAGCATT
switch fluorescence ratio: 1 ± 0.026

TTAGAGGCCC
switch fluorescence ratio: 1.01 ± 0.032

TTAGAGGGAC
switch fluorescence ratio: 0.971 ± 0.014

TTAGAGGGGT
switch fluorescence ratio: 0.992 ± 0.03

TTAGAGGTCT
switch fluorescence ratio: 0.978 ± 0.011

TTAGAGTGGT
switch fluorescence ratio: 1.01 ± 0.033

TTAGATATGG
switch fluorescence ratio: 1.02 ± 0.026

TTAGATCTGC
switch fluorescence ratio: 1.02 ± 0.083

TTAGATTGCG
switch fluorescence ratio: 0.973 ± 0.026

TTAGATTTAA
switch fluorescence ratio: 0.998 ± 0.013

TTAGATTTTA
switch fluorescence ratio: 0.961 ± 0.034

TTAGCAGCGC
switch fluorescence ratio: 1.01 ± 0.055

TTAGCATAGT
switch fluorescence ratio: 0.98 ± 0.024

TTAGCCGGAC
switch fluorescence ratio: 1.05 ± 0.013

TTAGCGCCGG
switch fluorescence ratio: 1.03 ± 0.034

TTAGCGTAGG
switch fluorescence ratio: 1.02 ± 0.0011

TTAGCGTTTT
switch fluorescence ratio: 1.16 ± 0.25

TTAGCTTCTT
switch fluorescence ratio: 1.07 ± 0.066

TTAGGAAA
switch fluorescence ratio: 0.984 ± 0.044

TTAGGAACAC
switch fluorescence ratio: 1.07 ± 0.12

TTAGGAACAT
switch fluorescence ratio: 1.2 ± 0.23

TTAGGAAGAC
switch fluorescence ratio: 2.27 ± 1.4

TTAGGAAGTT
switch fluorescence ratio: 1 ± 0.033

TTAGGAGACT
switch fluorescence ratio: 0.991 ± 0.029

TTAGGAGTGT
switch fluorescence ratio: 0.9863 ± 0.0051
